Measurements: patent publication US20190309079A1

Key:
[1] = target: extracellular domain of human LEPR (amino acids 22-839 of P48357, Isoform B) with N-terminal myc-myc tag, GPI-anchored on HEK293 cells (HEK293/hLEPR-GPI) (human) (UniProt P48357); assay: FACS, HEK293/hLEPR-GPI, no added Leptin
[2] = target: extracellular domain of human LEPR (amino acids 22-839 of P48357, Isoform B) with N-terminal myc-myc tag, GPI-anchored on HEK293 cells (HEK293/hLEPR-GPI) (human) (UniProt P48357); assay: FACS, HEK293/hLEPR-GPI, 1 uM Leptin
[3] = target: full length human LEPR (amino acids 1-1165 of P48357, Isoform B) on cells (human) (UniProt P48357); assay: FACS, HEK293/Stat3-luc/hLEPR-FL, no Leptin
[4] = target: extracellular domain of human LEPR (amino acids 22-839 of P48357, Isoform B) with N-terminal myc-myc tag, GPI-anchored on HEK293 cells (HEK293/hLEPR-GPI) (human) (UniProt P48357); assay: FACS, HEK293/hLEPR-GPI, no Leptin
[5] = target: extracellular domain of human LEPR (amino acids 22-839 of P48357, Isoform B) with N-terminal myc-myc tag, GPI-anchored on HEK293 cells (HEK293/hLEPR-GPI) (human) (UniProt P48357); assay: FACS, 10 nM Ab, HEK293/hLEPR-GPI, 1 uM Leptin
[6] = target: extracellular domain portion of LEPR protein expressed with a C-terminal human Fc tag (hLEPR.hFc) (human); assay: blocking ELISA, hLeptin coated
[7] = target: extracellular domain of human LEPR (amino acids 22-839 of P48357, Isoform B) with N-terminal myc-myc tag, GPI-anchored on HEK293 cells (HEK293/hLEPR-GPI) (human) (UniProt P48357); assay: FACS, 10 nM Ab, HEK293/hLEPR-GPI, no added Leptin
[8] = target: human LEPR CRH1 (D1)-MMH (human) (UniProt P48357); assay: Luminex, myc-captured protein on beads
[9] = target: human LEPR extracellular domain expressed with a C-terminal mouse IgG2a Fc tag (hLEPR.mFc) (human); assay: SPR, captured mAb, 37C
[10] = target: Macaca fascicularis LEPR extracellular domain expressed with a C-terminal myc-myc-hexahistidine tag (mfLEPR.mmh) (Macaca fascicularis); assay: SPR, captured mAb, 37C
[11] = target: human LEPR extracellular domain expressed with a C-terminal myc-myc-hexahistidine tag (hLEPR.mmh) (human) (UniProt P48357); assay: SPR, captured mAb, 37C
[12] = target: extracellular domain of human LEPR (amino acids 22-839 of P48357, Isoform B) with N-terminal myc-myc tag, GPI-anchored on HEK293 cells (HEK293/hLEPR-GPI) (human) (UniProt P48357); assay: FACS, 70 nM Ab, HEK293/hLEPR-GPI, no Leptin
[13] = target: full length human LEPR (amino acids 1-1165 of P48357, Isoform B) on cells (human) (UniProt P48357); assay: FACS, 70 nM Ab, HEK293/Stat3-luc/hLEPR-FL, no Leptin
[14] = target: human LEPR extracellular domain expressed with a C-terminal mouse IgG2a Fc tag (hLEPR.mFc) (human); assay: SPR, captured mAb, 25C
[15] = target: Macaca fascicularis LEPR extracellular domain expressed with a C-terminal myc-myc-hexahistidine tag (mfLEPR.mmh) (Macaca fascicularis); assay: SPR, captured mAb, 25C
[16] = target: human LEPR extracellular domain expressed with a C-terminal myc-myc-hexahistidine tag (hLEPR.mmh) (human) (UniProt P48357); assay: SPR, captured mAb, 25C

extracellular domain of human LEPR (amino acids 22-839 of P48357, Isoform B) with N-terminal myc-myc tag, GPI-anchored on HEK293 cells (HEK293/hLEPR-GPI) (human), sequence (P48357 22-839, one chain of several): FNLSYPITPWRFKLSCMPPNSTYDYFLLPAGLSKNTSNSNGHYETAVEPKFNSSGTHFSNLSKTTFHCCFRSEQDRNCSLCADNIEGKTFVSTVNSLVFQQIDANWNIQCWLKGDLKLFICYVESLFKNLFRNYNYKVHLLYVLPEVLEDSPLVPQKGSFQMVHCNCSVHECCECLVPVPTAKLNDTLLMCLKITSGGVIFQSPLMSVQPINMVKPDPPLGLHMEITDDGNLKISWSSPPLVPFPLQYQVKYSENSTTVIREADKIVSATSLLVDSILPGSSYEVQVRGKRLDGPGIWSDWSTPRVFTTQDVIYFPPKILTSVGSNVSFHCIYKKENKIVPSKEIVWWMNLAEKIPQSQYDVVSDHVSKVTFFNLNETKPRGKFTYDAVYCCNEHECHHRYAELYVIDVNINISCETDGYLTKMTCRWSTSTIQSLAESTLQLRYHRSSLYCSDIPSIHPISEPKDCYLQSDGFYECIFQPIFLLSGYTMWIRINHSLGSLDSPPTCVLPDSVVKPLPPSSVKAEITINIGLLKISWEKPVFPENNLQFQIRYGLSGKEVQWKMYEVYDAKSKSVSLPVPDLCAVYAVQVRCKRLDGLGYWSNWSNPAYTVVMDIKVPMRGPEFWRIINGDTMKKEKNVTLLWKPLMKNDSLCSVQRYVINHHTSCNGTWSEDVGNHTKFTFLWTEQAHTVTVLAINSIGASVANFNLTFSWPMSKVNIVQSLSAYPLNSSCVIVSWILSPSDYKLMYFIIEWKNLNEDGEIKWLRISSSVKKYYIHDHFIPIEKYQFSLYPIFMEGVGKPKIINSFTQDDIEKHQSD
extracellular domain portion of LEPR protein expressed with a C-terminal human Fc tag (hLEPR.hFc) (human), sequence (chain, as listed by the source limits assumed): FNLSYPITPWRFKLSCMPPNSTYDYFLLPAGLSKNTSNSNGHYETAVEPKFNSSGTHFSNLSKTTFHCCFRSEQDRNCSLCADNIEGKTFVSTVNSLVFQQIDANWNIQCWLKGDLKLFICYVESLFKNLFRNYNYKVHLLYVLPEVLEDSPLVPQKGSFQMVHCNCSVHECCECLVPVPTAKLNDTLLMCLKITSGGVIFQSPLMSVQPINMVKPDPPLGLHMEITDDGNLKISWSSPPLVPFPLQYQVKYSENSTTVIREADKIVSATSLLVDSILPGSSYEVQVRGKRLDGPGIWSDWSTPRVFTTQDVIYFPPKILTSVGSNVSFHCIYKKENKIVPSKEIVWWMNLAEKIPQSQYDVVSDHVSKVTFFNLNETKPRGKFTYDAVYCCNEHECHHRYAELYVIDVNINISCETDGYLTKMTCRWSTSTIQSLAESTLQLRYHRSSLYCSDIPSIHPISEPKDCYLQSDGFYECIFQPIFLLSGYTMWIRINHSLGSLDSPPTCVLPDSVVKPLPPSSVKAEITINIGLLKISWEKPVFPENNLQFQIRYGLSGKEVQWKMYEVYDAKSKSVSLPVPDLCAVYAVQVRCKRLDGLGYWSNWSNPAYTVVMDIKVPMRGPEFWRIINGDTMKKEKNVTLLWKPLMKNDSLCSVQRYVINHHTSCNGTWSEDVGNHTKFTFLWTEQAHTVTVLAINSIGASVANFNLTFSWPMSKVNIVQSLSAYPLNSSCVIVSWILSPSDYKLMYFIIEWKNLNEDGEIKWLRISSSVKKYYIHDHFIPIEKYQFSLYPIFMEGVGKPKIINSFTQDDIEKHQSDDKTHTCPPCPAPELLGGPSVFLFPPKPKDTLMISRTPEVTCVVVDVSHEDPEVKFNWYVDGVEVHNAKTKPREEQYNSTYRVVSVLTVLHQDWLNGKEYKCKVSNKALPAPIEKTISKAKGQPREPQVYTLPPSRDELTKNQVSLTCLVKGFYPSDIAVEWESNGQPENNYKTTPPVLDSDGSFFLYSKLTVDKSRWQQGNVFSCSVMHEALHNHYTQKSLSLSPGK
full length human LEPR (amino acids 1-1165 of P48357, Isoform B) on cells (human), sequence (P48357 22-1165): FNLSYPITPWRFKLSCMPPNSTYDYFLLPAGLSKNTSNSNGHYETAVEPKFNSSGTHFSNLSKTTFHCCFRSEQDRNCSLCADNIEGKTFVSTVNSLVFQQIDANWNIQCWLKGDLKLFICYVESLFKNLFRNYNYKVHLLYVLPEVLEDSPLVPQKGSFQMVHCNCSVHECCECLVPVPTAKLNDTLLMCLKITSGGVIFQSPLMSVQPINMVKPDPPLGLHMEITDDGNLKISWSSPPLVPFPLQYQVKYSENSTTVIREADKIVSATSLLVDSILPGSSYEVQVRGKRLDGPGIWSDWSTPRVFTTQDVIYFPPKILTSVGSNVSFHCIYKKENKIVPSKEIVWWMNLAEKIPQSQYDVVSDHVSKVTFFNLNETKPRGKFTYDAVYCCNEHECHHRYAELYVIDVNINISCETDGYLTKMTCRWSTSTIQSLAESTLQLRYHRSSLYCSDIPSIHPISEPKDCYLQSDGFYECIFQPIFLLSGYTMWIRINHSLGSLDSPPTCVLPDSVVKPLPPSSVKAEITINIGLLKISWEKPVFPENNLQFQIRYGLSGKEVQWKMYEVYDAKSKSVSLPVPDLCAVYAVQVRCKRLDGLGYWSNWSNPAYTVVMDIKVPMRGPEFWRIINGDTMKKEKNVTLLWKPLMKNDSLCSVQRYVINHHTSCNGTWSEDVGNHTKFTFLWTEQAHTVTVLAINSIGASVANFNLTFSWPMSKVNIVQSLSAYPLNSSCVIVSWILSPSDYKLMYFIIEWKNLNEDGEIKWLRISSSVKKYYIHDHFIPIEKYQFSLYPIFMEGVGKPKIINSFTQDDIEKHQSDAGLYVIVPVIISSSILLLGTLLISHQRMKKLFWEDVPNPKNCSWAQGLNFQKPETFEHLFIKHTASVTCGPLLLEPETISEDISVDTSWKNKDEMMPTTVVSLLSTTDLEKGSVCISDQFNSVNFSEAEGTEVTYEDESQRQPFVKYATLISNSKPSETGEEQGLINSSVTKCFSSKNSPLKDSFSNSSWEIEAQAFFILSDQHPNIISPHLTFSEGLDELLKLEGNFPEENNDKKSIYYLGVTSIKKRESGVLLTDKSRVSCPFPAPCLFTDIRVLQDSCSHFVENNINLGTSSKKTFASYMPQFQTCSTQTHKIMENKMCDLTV
human LEPR extracellular domain expressed with a C-terminal myc-myc-hexahistidine tag (hLEPR.mmh) (human), sequence (P48357 other isoform, or with tags, fused parts or gaps): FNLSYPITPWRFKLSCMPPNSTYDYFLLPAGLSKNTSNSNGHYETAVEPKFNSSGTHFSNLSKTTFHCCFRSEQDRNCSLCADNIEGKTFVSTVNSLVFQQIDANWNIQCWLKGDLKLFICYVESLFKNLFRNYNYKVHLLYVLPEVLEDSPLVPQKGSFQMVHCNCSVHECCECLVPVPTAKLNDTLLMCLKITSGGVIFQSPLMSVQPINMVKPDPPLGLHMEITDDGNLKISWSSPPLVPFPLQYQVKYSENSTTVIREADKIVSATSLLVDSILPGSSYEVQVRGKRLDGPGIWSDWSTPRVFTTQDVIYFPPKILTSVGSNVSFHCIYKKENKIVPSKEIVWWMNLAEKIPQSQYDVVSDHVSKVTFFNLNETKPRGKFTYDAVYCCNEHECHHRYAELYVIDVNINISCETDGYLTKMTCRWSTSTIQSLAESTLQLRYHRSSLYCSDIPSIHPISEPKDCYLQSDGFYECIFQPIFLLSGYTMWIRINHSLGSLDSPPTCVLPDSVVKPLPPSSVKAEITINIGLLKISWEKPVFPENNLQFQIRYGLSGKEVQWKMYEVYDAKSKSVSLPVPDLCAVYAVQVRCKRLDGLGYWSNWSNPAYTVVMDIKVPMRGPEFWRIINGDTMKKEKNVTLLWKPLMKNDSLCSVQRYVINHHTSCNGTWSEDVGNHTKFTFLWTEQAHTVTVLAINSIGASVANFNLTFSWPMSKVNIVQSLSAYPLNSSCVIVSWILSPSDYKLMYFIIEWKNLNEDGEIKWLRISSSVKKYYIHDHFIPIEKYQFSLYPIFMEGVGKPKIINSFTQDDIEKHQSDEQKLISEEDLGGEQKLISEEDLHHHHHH
Macaca fascicularis LEPR extracellular domain expressed with a C-terminal myc-myc-hexahistidine tag (mfLEPR.mmh) (Macaca fascicularis), sequence (Q9MYL0 other isoform, or with tags, fused parts or gaps): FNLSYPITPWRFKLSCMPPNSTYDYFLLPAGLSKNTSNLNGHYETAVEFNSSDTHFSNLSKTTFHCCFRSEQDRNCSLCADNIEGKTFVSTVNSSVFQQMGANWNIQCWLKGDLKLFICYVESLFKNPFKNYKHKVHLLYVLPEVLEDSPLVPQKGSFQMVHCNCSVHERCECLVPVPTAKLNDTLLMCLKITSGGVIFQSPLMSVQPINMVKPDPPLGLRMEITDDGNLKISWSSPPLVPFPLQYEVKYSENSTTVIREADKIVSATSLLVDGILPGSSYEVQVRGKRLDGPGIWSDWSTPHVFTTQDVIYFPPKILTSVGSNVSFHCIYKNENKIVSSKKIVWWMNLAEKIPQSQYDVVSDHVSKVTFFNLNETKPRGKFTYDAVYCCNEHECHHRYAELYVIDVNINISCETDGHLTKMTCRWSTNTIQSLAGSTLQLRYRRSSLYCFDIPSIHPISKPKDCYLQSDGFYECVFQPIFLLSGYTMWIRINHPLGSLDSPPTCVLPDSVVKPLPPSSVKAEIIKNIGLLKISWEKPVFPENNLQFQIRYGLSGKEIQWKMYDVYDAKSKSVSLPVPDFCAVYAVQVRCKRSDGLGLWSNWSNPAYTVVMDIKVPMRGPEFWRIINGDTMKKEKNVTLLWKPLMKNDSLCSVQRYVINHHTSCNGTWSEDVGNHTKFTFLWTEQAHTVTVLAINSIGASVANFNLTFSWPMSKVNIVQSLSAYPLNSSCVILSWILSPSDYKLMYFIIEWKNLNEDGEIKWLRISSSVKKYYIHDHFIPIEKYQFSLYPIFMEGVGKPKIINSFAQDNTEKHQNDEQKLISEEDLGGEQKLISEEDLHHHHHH
human LEPR CRH1 (D1)-MMH (human), sequence (P48357 22-229 limits assumed): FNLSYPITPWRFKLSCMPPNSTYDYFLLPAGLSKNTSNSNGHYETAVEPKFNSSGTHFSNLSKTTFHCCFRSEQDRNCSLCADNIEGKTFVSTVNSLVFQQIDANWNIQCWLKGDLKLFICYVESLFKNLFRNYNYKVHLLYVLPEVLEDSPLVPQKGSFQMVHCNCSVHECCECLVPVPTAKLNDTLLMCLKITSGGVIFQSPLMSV

With “Alexa Fluor-647 conjugated secondary antibody (Jackson ImmunoResearch Laboratories Inc., #109-547-003), alone” as the substance, how does the Binding Ratio (normalized to unstained) [1] read?
The Binding Ratio (normalized to unstained) was 3 fold.

What about the Binding Ratio (normalized to unstained) [2] of the same substance?
Its Binding Ratio (normalized to unstained) is 3 fold.

And the Binding Ratio (normalized to unstained) [3]?
The Binding Ratio (normalized to unstained) was 1 fold.

And the Binding Ratio (normalized to unstained) [4]?
Its Binding Ratio (normalized to unstained) is 1 fold.

For “Comparator mAb (Fab9F8 described in Fazeli et al. 2006 and Carpenter et al. 2012) (antibody)”, which Binding Ratio (normalized to unstained) [5] is on record?
Its Binding Ratio (normalized to unstained) is 112 fold.

And the 500 nM Ab Blocking of 10 nM hLEPR.hFc Binding to hLeptin (% blockade) [6]?
The 500 nM Ab Blocking of 10 nM hLEPR.hFc Binding to hLeptin (% blockade) was 99%.

What about the Binding Ratio (normalized to unstained) [7] of the same substance?
The Binding Ratio (normalized to unstained) was 2350 fold.

What about the Luminex MFI [8] of the same substance?
The Luminex MFI was 14 MFI.

Isotype Control monoclonal antibody was tested. Which Binding Ratio (normalized to unstained) [5] did it give?
The Binding Ratio (normalized to unstained) was 4 fold.

What about the 100 nM hLEPR-mFc Bound (RU) [9] of the same substance?
The 100 nM hLEPR-mFc Bound (RU) was 1 RU.

And the 100 nM mfLEPR.MMH Bound (RU) [10]?
The 100 nM mfLEPR.MMH Bound (RU) was 1 RU.

What about the 100 nM hLEPR-MMH Bound (RU) [11] of the same substance?
The 100 nM hLEPR-MMH Bound (RU) was 6 RU.

And the Binding Ratio (normalized to unstained) [12]?
The Binding Ratio (normalized to unstained) was 2 fold.

What about the 500 nM Ab Blocking of 10 nM hLEPR.hFc Binding to hLeptin (% blockade) [6] of the same substance?
Its 500 nM Ab Blocking of 10 nM hLEPR.hFc Binding to hLeptin (% blockade) is -3%.

And the Binding Ratio (normalized to unstained) [7]?
Its Binding Ratio (normalized to unstained) is 6 fold.

What about the Binding Ratio (normalized to unstained) [13] of the same substance?
The Binding Ratio (normalized to unstained) was 2 fold.

What about the 100 nM hLEPR-mFc Bound (RU) [14] of the same substance?
The 100 nM hLEPR-mFc Bound (RU) was -2 RU.

And the 100 nM mfLEP.MMH Bound (RU) [15]?
The 100 nM mfLEP.MMH Bound (RU) was 0 RU.

What about the 100 nM hLEPR-mmH Bound (RU) [16] of the same substance?
The 100 nM hLEPR-mmH Bound (RU) was 4 RU.

For Mouse IgG2a Isotype control (antibody), which 500 nM Ab Blocking of 10 nM hLEPR.hFc Binding to hLeptin (% blockade) [6] is on record?
The 500 nM Ab Blocking of 10 nM hLEPR.hFc Binding to hLeptin (% blockade) was 32%.
